The results in this text go back to US9969998B2, “Compositions of adenosine deaminase-2 (ADA2), variants thereof and methods of using same” (Halozyme, Inc., priority 2014, dated 2018).

A word on the Km: it is the substrate concentration at which the rate is half of its maximum. Usually Vmax stands for the top rate of the reaction or transport when substrate is in excess. What is called kcat is the number of substrate molecules converted per active site and unit of time at saturation.

This data set in a line: Kinetic assessment of adenosine deaminase activity (ammonia assay, Michaelis-Menten). Format: biochemical. The settings on record: [E] = 8.5 nM; for kcat: kcat=Vmax/0.0085/60. Here is the method:
Adenosine deaminase activity was determined by the measurement of ammonia released from adenosine when broken down to inosine. Ammonia was measured using a commercially available Ammonia Assay kit (Cat. No. AA0100, Sigma-Aldrich, St. Louis, Mo.). The kit contains dry reagents containing α-ketoglutaric acid and NADPH, which were reconstituted with 5 mL water prior to use in the assay. Ammonia reacts with α-ketogluaric acid (KGA) and reduced nicotinamide adenine dinucleotide phosphate (NADPH) in the presence of L-glutamate dehydrogenase (GDH).
Kinetics parameters of rHuADA2 WT and variants were compared using this assay at different adenosine concentrations at pH 7.6 and 6.5. Adenosine concentrations ranging from 20 μM to 20 mM were used. Sub-molar concentration of adenosine stock was prepared in 1N NaOH.
For the enzymatic assays at pH 7.6, adenosine was serially diluted with 100 mM sodium acetate (NaOAc), pH 4.9. A 2× reaction mixture was prepared, containing reconstituted ammonia assay reagent (containing about 4 mM α-ketoglutarate and about 300 μM NADPH), WT rHuADA2 or variants at 1 μg/mL (17 nM) and glutamate dehydrogenase (GDH, 1:50 dilution). 85 μL of adenosine was added to 85 μL 2× mixture in duplicate in a UV-transparent half-area plate. The change in absorbance (ΔA) at 340 nm over time at room temperature was monitored.
For the enzymatic assay at pH 6.5, adenosine was serially diluted with 200 mM piperazine-N,N′-bis(2-ethanesulfonic acid) (PIPES), pH 6.5. A 2× reaction mixture in 200 mM PIPES, pH 6.5 was prepared, containing 4 mM α-ketoglutarate, 300 μM NADPH, 1 μg/mL (17 nM) rHuADA2 or variants and 50 U/mL GDH (Cat No. G2626, Sigma-Aldrich). The enzymatic reaction was initiated by adding equal volume of adenosine to the 2× mixture in a UV-transparent half-area plate as described above, and the change in absorbance (AA) at 340 nm over time at room temperature was monitored.
Adenosine deaminase activity in mU/mL (μM/min equivalent) was calculated using the following formula: 1 mU/mL=−(−ΔA/min×Tv)/(Sv×ϵ×1) • where Tv=total volume (170 μL), Sv=sample volume (85 μL), ϵ=6.22×10^−3 μM^−1 cm^−1, 1=1 cm.
The activity data were fitted with non-linear regression of Michaelis-Menten equation using Graphpad Prism software to obtain Km and Vmax. Other kinetics parameters such as kcat and kcat/Km were also determined.

B1: R222Q/S265N/K374E: ADA2 combination variant SEQ ID NO:268 (protein)
chain: IDETRAHLLLKEKMMRLGGRLVLNTKEELANERLMTLKIAEMKEAMRTLIFPPSMHFFQAKHLIERSQVFNILRMMPKGAALHLHDIGIVTMDWLVRNVTYRPHCHICFTPRGIMQFRFAHPTPRPSEKCSKWILLEDYRKRVQNVTEFDDSLLRNFTLVTQHPEVIYTNQNVVWSKFETIFFTISGLIHYAPVFRDYVFRSMQEFYEDNVLYMEIRAQLLPVYELSGEHHDEEWSVKTYQEVAQKFVETHPEFIGIKIIYNDHRSKDVAVIAESIRMAMGLRIKFPTVVAGFDLVGHEDTGHSLHDYKEALMIPAKDGVKLPYFFHAGETDWQGTSIDRNILDALMLNTTRIGHGFALSKHPAVRTYSWEKDIPIEVCPISNQVLKLVSDLRNHPVATLMATGHPMVISSDDPAMFGAKGLSYDFYEVFMGIGGMKADLRTLKQLAMNSIKYSTLLESEKNTFMEIWKKRWDKFIADVATK
modifications: human ADA2 R219Q/S262N/K371E, mature numbering
For B1, under “pH 6.5”, the Km stood at 800 µM, the Vmax came out at 45.53 µM/min and the kcat turned out to be 89.27 s⁻¹. Also, where the note is “pH 7.6”, the Michaelis constant (Km) is 1350 µM, the maximum rate (Vmax) was determined as 65.43 µM/min and the kcat was found to be 128.29 s⁻¹.

B2: R222Q/S265N/K374D: ADA2 combination variant SEQ ID NO:269 (protein)
chain: IDETRAHLLLKEKMMRLGGRLVLNTKEELANERLMTLKIAEMKEAMRTLIFPPSMHFFQAKHLIERSQVFNILRMMPKGAALHLHDIGIVTMDWLVRNVTYRPHCHICFTPRGIMQFRFAHPTPRPSEKCSKWILLEDYRKRVQNVTEFDDSLLRNFTLVTQHPEVIYTNQNVVWSKFETIFFTISGLIHYAPVFRDYVFRSMQEFYEDNVLYMEIRAQLLPVYELSGEHHDEEWSVKTYQEVAQKFVETHPEFIGIKIIYNDHRSKDVAVIAESIRMAMGLRIKFPTVVAGFDLVGHEDTGHSLHDYKEALMIPAKDGVKLPYFFHAGETDWQGTSIDRNILDALMLNTTRIGHGFALSKHPAVRTYSWDKDIPIEVCPISNQVLKLVSDLRNHPVATLMATGHPMVISSDDPAMFGAKGLSYDFYEVFMGIGGMKADLRTLKQLAMNSIKYSTLLESEKNTFMEIWKKRWDKFIADVATK
modifications: human ADA2 R219Q/S262N/K371D, mature numbering
B2: for the setting “pH 6.5”, the Km is 760 µM, the Vmax turned out to be 50.89 µM/min and the catalytic constant (kcat) amounted to 99.78 s⁻¹. Also, under “pH 7.6”, the Km came to 1190 µM, the maximum rate (Vmax) worked out at 70.96 µM/min and the kcat worked out at 139.14 s⁻¹.

B3: R222Q/S265N/R23E: ADA2 combination variant SEQ ID NO:270 (protein)
chain: IDETRAHLLLKEKMMRLGGELVLNTKEELANERLMTLKIAEMKEAMRTLIFPPSMHFFQAKHLIERSQVFNILRMMPKGAALHLHDIGIVTMDWLVRNVTYRPHCHICFTPRGIMQFRFAHPTPRPSEKCSKWILLEDYRKRVQNVTEFDDSLLRNFTLVTQHPEVIYTNQNVVWSKFETIFFTISGLIHYAPVFRDYVFRSMQEFYEDNVLYMEIRAQLLPVYELSGEHHDEEWSVKTYQEVAQKFVETHPEFIGIKIIYNDHRSKDVAVIAESIRMAMGLRIKFPTVVAGFDLVGHEDTGHSLHDYKEALMIPAKDGVKLPYFFHAGETDWQGTSIDRNILDALMLNTTRIGHGFALSKHPAVRTYSWKKDIPIEVCPISNQVLKLVSDLRNHPVATLMATGHPMVISSDDPAMFGAKGLSYDFYEVFMGIGGMKADLRTLKQLAMNSIKYSTLLESEKNTFMEIWKKRWDKFIADVATK
modifications: human ADA2 R219Q/S262N/R20E, mature numbering
B3: where the note is “pH 6.5”, the Km came to 1010 µM, the Vmax came out at 40.59 µM/min and the kcat was 79.59 s⁻¹. In addition, where the note is “pH 7.6”, the Km is 1290 µM, the Vmax was 67.24 µM/min and the kcat stood at 131.84 s⁻¹.
